Data taken from patent publication US20250179183A1 (BIOMOLECULAR, published 2025).
Like-named read-outs stand apart in the source and are kept apart here.

B1: Rituximab (antibody)
VH: not shown
VL: QIVLSQSPAILSASPGEKVTMTCRASSSVSYIHWFQQKPGSSPKPWIYATSNLASGVPVRFSGSGSGTSYSLTISRVEAEDAATYYCQQWTSNPPTFGGGTKLEIKRTVAAPSVFIFPPSDEQLKSGTASVVCLLNNFYPREAKVQWKVDNALQSGNSQESVTEQDSKDSTYSLSSTLTLSKADYEKHKVYACEVTHQGLSSPVTKSFNRGEC
B2: Tafasitamab (antibody, human IgG1, kappa)
heavy: EVQLVESGGGLVKPGGSLKLSCAASGYTFTSYVMHWVRQAPGKGLEWIGYINPYNDGTKYNEKFQGRVTISSDKSISTAYMELSSLRSEDTAMYYCARGTYYYGTRVFDYWGQGTLVTVSSASTKGPSVFPLAPSSKSTSGGTAALGCLVKDYFPEPVTVSWNSGALTSGVHTFPAVLQSSGLYSLSSVVTVPSSSLGTQTYICNVNHKPSNTKVDKKVEPKSCDKTHTCPPCPAPELLGGPDVFLFPPKPKDTLMISRTPEVTCVVVDVSHEDPEVQFNWYVDGVEVHNAKTKPREEQFNSTFRVVSVLTVVHQDWLNGKEYKCKVSNKALPAPEEKTISKTKGQPREPQVYTLPPSREEMTKNQVSLTCLVKGFYPSDIAVEWESNGQPENNYKTTPPMLDSDGSFFLYSKLTVDKSRWQQGNVFSCSVMHEALHNHYTQKSLSLSPG
light: DIVMTQSPATLSLSPGERATLSCRSSKSLQNVNGNTYLYWFQQKPGQSPQLLIYRMSNLNSGVPDRFSGSGSGTEFTLTISSLEPEDFAVYYCMQHLEYPITFGAGTKLEIKRTVAAPSVFIFPPSDEQLKSGTASVVCLLNNFYPREAKVQWKVDNALQSGNSQESVTEQDSKDSTYSLSSTLTLSKADYEKHKVYACEVTHQGLSSPVTKSFNRGEC
B3: HB2198 (bispecific antibody, human IgG1, kappa)
heavy 1: QVQLVQSGGGVVQPGRSLRLSCAASGVSLPDYGVSWVRKAPGKGLEWVAVIWGSETTYYNSALKSRFTISRDNSKNTLYLQMSSLRAEDTAVYYCAKHYYYGGSFAMDYWGQGTLVTVSSASTKGPSVFPLAPSSKSTSGGTAALGCLVKDYFPEPVTVSWNSGALTSGVHTFPAVLQSSGLYSLESVVTVPSSSLGTQTYICNVNHKPSNTKVDKKVEPKSCTDWSPYADQSIKVRISLKSALGDKAYEWNDNEMYLFRSSVAYAMRQYFLKVKNQMILFGEEDVRVANLKPRISFNFFVTAPKNVSDIIPRTEVEKAIRMSRSRINDAFRLNDNSLEFLGIQPTLGPPNQPPVSTSTSPTRSMAPGAVHLPQPVSTRDKTHTCPPCPAPELLGGPDVFLFPPKPKDTLMISRTPEVTCVVVDVSHEDPEVKFNWYVDGVEVHNAKTKPREEQYNSTYRVVSVLTVLHQDWLNGKEYKCKVSNKALPAPEEKTISKAKGQPREPQVCTLPPSRDELTKNQVSLSCAVKGFYPSDIAVEWESNGQPENNYKTTPPVLDSDGSFFLVSKLTVDKSRWQQGNVFSCSVMHEALHNRFTQKSLSLSPG
heavy 2: QIVLSQSPAILSASPGEKVTMTCRASSSVSYIHWFQKKPGSSPKPWIYATSNLASGVPVRFSGSGSGTSYSLTISRVEAEDAATYYCQQWTSNPPTFGGGTKVEIKSSASTKGPSVFPLAPSSKSTSGGTAALGCLVKDYFPEPVTVSWNSGALTSGVHTFPAVLQSSGLYSLKSVVTVPSSSLGTQTYICNVNHKPSNTKVDKKVEPKSCDKTHTCPPCPAPELLGGPDVFLFPPKPKDTLMISRTPEVTCVVVDVSHEDPEVKFNWYVDGVEVHNAKTKPREEQYNSTYRVVSVLTVLHQDWLNGKEYKCKVSNKALPAPEEKTISKAKGQPREPQVYTLPPCRDELTKNQVSLWCLVKGFYPSDIAVEWESNGQPENNYKTTPPVLDSDGSFFLYSKLTVDKSRWQQGNVFSCSVMHEALHNHYTQKSLSLSPG
light 1: DIQMTQSPSSLSASVGDRVTITCRASQDISKYLNWYQEKPGKAIKLLIYHTSRLHSGVPSRFSGSGSGTDFTLTISSLQPEDFATYYCQQGATLPYTFGPGTKLEIKRTVAAPSVFIFPPSDEQLKSGTASVKCLLNNFYPREAKVQWKVDNALQSGNSQESVTEQDSKDSTYSLSSTLTLSKADYEKHKVYACEVTHQGLSSPVTKSFNRGEC
light 2: QVQLQQPGAELVKPGASVKMSCKASGYTFTSYNMHWVKETPGRGLEWIGAIYPGNGDTSYNQKFKGKATLTADKSSSTAYMQLSSLTSEDSAVYYCARSTYYGGDWYFNVWGAGTLVTVSSASVAAPSVFIFPPSDEQLKSGTASVECLLNNFYPREAKVQWKVDNALQSGNSQESVTEQDSKDSTYSLSSTLTLSKADYEKHKVYACEVTHQGLSSPVTKSFNRGEC

Assays:
cynomolgus monkey CD64 [1] = biological target: T1, cynomolgus monkey CD64 (cynomolgus monkey, UniProt A0A2K5U901 33-309)
cynomolgus monkey CD32a [2] = biological target: cynomolgus monkey CD32a (cynomolgus monkey)
cynomolgus monkey CD64 [3] = biological target: T1, cynomolgus monkey CD64; remark: listed apart in the source
cynomolgus monkey CD32b [4] = biological target: cynomolgus monkey CD32b (cynomolgus monkey)
cynomolgus monkey CD32a [5] = biological target: cynomolgus monkey CD32a (cynomolgus monkey); remark: listed apart in the source
cynomolgus monkey CD32b [6] = biological target: cynomolgus monkey CD32b (cynomolgus monkey); remark: listed apart in the source

T1 sequence (A0A2K5U901 entry or part of it limits assumed, form in doubt): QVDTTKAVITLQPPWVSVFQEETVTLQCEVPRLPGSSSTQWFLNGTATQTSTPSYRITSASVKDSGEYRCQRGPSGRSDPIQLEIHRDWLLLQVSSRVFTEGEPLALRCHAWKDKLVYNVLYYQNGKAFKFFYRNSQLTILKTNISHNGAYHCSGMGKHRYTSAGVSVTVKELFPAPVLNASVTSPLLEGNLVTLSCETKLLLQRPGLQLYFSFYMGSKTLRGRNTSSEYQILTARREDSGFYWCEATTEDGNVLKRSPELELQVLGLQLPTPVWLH

Row | Binder | Kd (cynomolgus monkey CD64 [1]) | Kd (cynomolgus monkey CD32a [2]) | Kd (cynomolgus monkey CD64 [3]) | Kd (cynomolgus monkey CD32b [4]) | Kd (cynomolgus monkey CD32a [5]) | Kd (cynomolgus monkey CD32b [6])
1 | B1 | < 0.02 nM |  |  |  |  | 
2 | B2 | < 0.02 nM | 181 nM | 1.8 nM | 152 nM | 76.2 nM | 53 nM
3 | B3 | < 0.02 nM | 4 nM | < 0.02 nM | 3.4 nM | 305 nM | 218 nM
